Data reported in paper PMC5524322, “Species A rotavirus NSP3 acquires its translation inhibitory function prior to stable dimer formation” (PLoS ONE, 2017).

Target: the molecule itself
Assay: non-dissociating Western blot (WB-ND); lysates of vaccinia-infected BSC-1 cells (18 hpi) mixed with 2x non-dissociating sample buffer (62.5 mM Tris-HCl pH 6.8, 0.8% SDS, 20% glycerol), 30 min on ice, not boiled; 12% SDS-PAGE in a cold room; blot with anti-NSP3 rat serum; stable dimer band (68 kDa) told apart from monomer/dimerization intermediate band (34 kDa); cells with MG132 or DMSO, in one experiment with …

Protein | stoichiometry N | fold lower accumulation of stable dimers than NSP3_(Y192A) [fold] | fold lower accumulation of stable dimers than wtNSP3 [fold]
wild type NSP3 (non-structural protein 3) of simian species A rotavirus strain RRV (natural protein, also called wtNSP3; RRV NSP3) MESTQQMASSIINSSFEAAVVAATSTLELMGIQYDYNEVYTRVKSKFDLVMDDSGVKNNLIGKAITIDQALNGKFSSAIRNRNWMTDSRTVAKLDEDVNKLRIMLSSKGIDQKMRVLNACFSVKRIPGKSSSIVKCTRLMKDKLERGEVEVDDSFVEEKMEVDTIDWKSRYEQLEKRFESLKHRVNEKYNHWVLKARKVNENMNSLQNVISQQQAHINELQMYNNKLERDLQSKIGSVVSSIEWYLRSMELSDDVKSDIEQQLNSIDQLNPVNAIDDFESILRNLISDYDRLFIMFKGLLQQCNYTYTYE | 2 | – | –
NSP3 W170A of rotavirus strain RRV (natural protein, also called vNSP3_(W170A)) MESTQQMASSIINSSFEAAVVAATSTLELMGIQYDYNEVYTRVKSKFDLVMDDSGVKNNLIGKAITIDQALNGKFSSAIRNRNWMTDSRTVAKLDEDVNKLRIMLSSKGIDQKMRVLNACFSVKRIPGKSSSIVKCTRLMKDKLERGEVEVDDSFVEEKMEVDTIDAKSRYEQLEKRFESLKHRVNEKYNHWVLKARKVNENMNSLQNVISQQQAHINELQMYNNKLERDLQSKIGSVVSSIEWYLRSMELSDDVKSDIEQQLNSIDQLNPVNAIDDFESILRNLISDYDRLFIMFKGLLQQCNYTYTYE | – | 16 | 9
